Patent publication US20220268706A1

Tests used:
[1] = target: antibody-12/36-RLuc8 conjugate (Renilla reniformis); test: BRET competition, Fluorostar; 50 nM mAb-12/36-RLuc8, 200 nM FLAG-GFP^2 as competitor
[2] = target: antibody-CLICK-RLuc8 (anti-FLAG mAb-dPEG4-DBCO:RLuc8:dPEG8azide conjugate) (Renilla reniformis); test: BRET competition; 50 nM conjugate, 200 nM FLAG-GFP^2 as competitor, 1 µM FLAG peptide
[3] = target: antibody-CLICK-RLuc8 (anti-FLAG mAb-dPEG4-DBCO:RLuc8:dPEG8azide conjugate) (Renilla reniformis); test: BRET competition; 5 nM antibody-CLICK-RLuc8, 150 nM FLAG-GFP^2 as competitor, 100 nM FLAG peptide; same for every order of addition

Sequence of antibody-CLICK-RLuc8 (anti-FLAG mAb-dPEG4-DBCO:RLuc8:dPEG8azide conjugate) (Renilla reniformis) (P27652 other isoform, or with tags, fused parts or gaps): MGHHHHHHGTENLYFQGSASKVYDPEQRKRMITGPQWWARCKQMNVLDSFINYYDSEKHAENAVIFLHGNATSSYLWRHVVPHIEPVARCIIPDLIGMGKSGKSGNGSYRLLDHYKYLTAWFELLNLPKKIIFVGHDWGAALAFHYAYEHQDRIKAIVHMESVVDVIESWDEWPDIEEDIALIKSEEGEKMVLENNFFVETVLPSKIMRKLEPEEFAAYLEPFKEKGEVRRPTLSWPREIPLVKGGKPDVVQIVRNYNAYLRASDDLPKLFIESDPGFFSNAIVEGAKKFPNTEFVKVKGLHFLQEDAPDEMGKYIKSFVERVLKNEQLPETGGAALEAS
Sequence of antibody-12/36-RLuc8 conjugate (Renilla reniformis) (P27652 other isoform, or with tags, fused parts or gaps): as above

- EC50 [1]: 274 nM
- response to 1 µM FLAG peptide [2]: 45%
- decrease in the BRET ratio [3]: 22%
Substance: FLAG peptide (DYKDDDDK)
